This passage reports binding signal results from patent US20220348923, “CA-IX APTAMERS AND DIAGNOSTIC AND THERAPEUTIC USES THEREOF” (BRACCO IMAGING S.P.A., published 2022).

The target of this data set is Carbonic Anhydrase IX (CA-IX) (Homo sapiens, UniProt Q16790 Q16790:38-414). In words: RT-qPCR cell binding, 100 nM, 15 min, 37 C, acid condition.

The molecule UUCGUGCCGCUGAGUGCGUACGGGC (ssRNA, 2'-F pyrimidines) [SAM-1.T1] yielded a binding signal of 1.3 fold over COS7-WT.

As to UCGAAUGAACCAAGGUUCCUCGGC (ssRNA, 2'-F pyrimidines) [SAM-2.T1], the binding signal turned out to be 2.4 fold over COS7-WT.
